The values below come from the DeepSol protein solubility set.

A short description of the series: soluble on expression in E. coli; label from the status in PepcDB or PDB records.
As to “MAAMPKPAAFWNDRFANEEYVYGEAPNRFVASAARTWLPEAGEVLLLGAGEGRNAVHLAREGHTVTAVDYAVEGLRKTERLATEAGVEVEAIQADVREWKPARAWDAVVVTFLHLPADERPGLYRLVQRCLRPGGRLVAEWFRPLEHHHHHH”, the “soluble on expression in E. coli” value is listed as “not soluble”.
To “MSLTSTLLRGRTLSFVRWPETIDDHSAWRYEEDGGLLISDGRIIASGAYHDVEKQAGEGAKKIDHRPHLLLPGFIDTHVHFPQMQVIASYGAELLDWLNTYTFPEETKFANAQHGRRIARLFLDEMVRHGTTTVAAYCSVHKASAEAFFAESHDRNMLNIAGKVMMDRNAPDGVLDTPQSGYDDTKALIKEWHGKGRQHYAITPRFAITSSPEQMEMAGALCREHPGLHMQTHLSENHAEIAFTQQLYPRSRDYTDVYEHYGLLGKNSLFGHCIHLSEREADALSQSGSVAVFCPTSNLFLGSGLFDYQRFRRRDKPLRIAAATDVGGGTNYSMLRTMDEGYKVIALNGEKLNPFQSFWQITRGNAEALSVADKIGTLDQGTDADIVVLDARATPAMRLRMETAQTLAQELFLLQTLGDDRAVREVYVAGRAAKSDMANEGHHHHHH” belongs “soluble”; to “MPAQIEDYALLGNCRSAALVSRDGALDWLCLPRFDAPAVFAALLGNEENGRWRLAPCDPVTHSSRQYLGDTLVLETTWVTASGRARVLDFMPLGEVNSVVRIVEGLSGETHFEMDLVMRFDYGLEHHHHHH”, “not soluble”; to “MKKLIVASLSLTFMLGGCASMNKEGVGTITGGVVGGLLGSQFGGGSGKVAAAGAGALLGAYLGGQIGKTMDKVDRLEMQRALETAPTGKAVAWSNPDTGYRYTVQPTRTYYNAQQPCREYITKAMIGGKTQQIYGKACRQADGSWRVVNLEHHHHHH”, “not soluble”.
Next, “MDILFRIRGGFDLAFQLAPPKEMFIKNALRQVLSDLTTKLSSDALVLRVCNSSVYLWPNSDANTGELTDSSACKNVVRFIQFDQEEDTKRKFIKKKDKKLTDTQQIVNIDLMLEISTPLGAVTPILERENEEHHYINMSLPIDAVVSVAPEESWGKVRKLLVDAILRQLVDVEKCILRYMKGTSIVVPEPLHFQLPGKKNLVTVLYPSGIPDDQLQAYRKELHDLFNLPHDRPYFKRINAYHFPDELYKDGYIRNPHTYLSPPNIEGSMICVVQGTYAYHHYMQDRIDDNGWGCAYRSLQTICSWFRHQGYTERSIPTHREIQQALVDAGDKPATFVGSRQWIGSIEVQMVLNQLIGVTSKILFVNQGSEMASQGRELANHFQNVGTPVMVGGGVLAHTILGVAWNETTGQIKFLILDPHYTGAEDLQVMLEKGWCGWKSPDFWNKDAYYNLCLPQRPNAL”: “soluble”.
Next, “MKIITAINEDEWASITHIATTVHLKKDQLIIRKGDPGNKEVFLVNGIVRGFITDENGNEKSTSFFEEGEFMSTQALRTKKGISLYNYQALCRTKLLIFDSKQLKDLLSATKKLSEIGKAIKERELTRLMNRDDCLMQVKALDKYQKFITYYPALERQISQRYIASYLGITPVSLSRLKKSMIVRTDNN”: “not soluble”; “MGSDKIHHHHHHMNVEKLKKMKGKEKIVMVTAYDAPSARIARDAGIDVILVGDSLGNNVLGYENTIPVTMEEMLIHVAAVKRGAPDAFIVADMPFLSYQTSVEKAVENAGKFLKVGANAVKIEGGEEFGELVQKLVESGIPVMGHIGLTPQFVNRFGGYRVQGKTEKNREYLLRSARELEKRGAFAIVLELVVEEVAKEITESVSIPTIGIGSGRFCDGQVLVWHDLLGLNPDFAPRFSKKYANLYEVILKALQEFRREVKKGLFPTEEHSFTDKSKGGVSS”: “not soluble”.
Take “MEKEKSKTESLKKDEIDEANSESSKVPLAIDPEEAKLPNAGGKSEHMVVNFTSKRMAIKVRCGNALFRVEPTHMIIEPNKCRQLTINRMPGPIQKDKAIVQYLQIENDVQDPKTAFKAADSAGTKIPHLKIKLVAGASGGRQMSREVVDE”: the “soluble on expression in E. coli” value is recorded as “not soluble”.
For “SEWLKSTDYGKYEGLTKNYMDYLSRLYEREIKDFFEVAKIKMTGTTKESKKFGLHGSSGKLTGSTSSLNKLSVQSSGNRRSQSSSLLDMGNMSASDLDVADRTKFDKIFEQVLSELEPLCLAEQDFISKFFKLQQHQSMPGTMAEAEDLDGGTLSRQHNCGTPLPVSSEKDMIRQMMIKIFRCIEPELNNLIALGDKIDSFNSLYMLVKMSHHVWTAQNVDPASFLSTTLGNVLVTVKRNFDKCISNQIRQMEEVKISKKSKVGILPFVAEFEEFAGLAESIFKNAERRGDLDKAYTKLIRGVFVNVEKVANESQKTPRDVVMMENFHHIFATLSRLKISCLEAEKKEAKQKYTDHLQSYVIYSLGQPLEKLNHFFEGVEARVAQGIREEEVSYQLAFNKQELRKVIKEYPGKEVKKGLDNLYKKVDKHLCEEENLLQVVWHSMQDEFIRQYKHFEGLIARCYPGSGVTMEFTIQDILDYCSSIAQSH”, the “soluble on expression in E. coli” value is listed as “soluble”.
In the case of “LQASCSDDQEHRLGSLDFYTGVFALEKSRIAEISNRATLELQKMATSGEPMWLRSVETGREILNYDEYLKEFPQAQASSFPGRKTIEASRDAGIVFMDAHKLAQSFMDVGQWKETFACLISKAATVDVIRQGEGPSRIDGAIQLMFGEMQLLTPVVPTREVYFVRSCRQLSPEKWAIVDVSVSVEDSNTEKEASLLKCRKLPSGCIIEDTSNGHSKVTWVEHLDVSASTVQPLFRSLVNTGLAFGARHWVATLQLHCERLVFFMATNVPTKDSLGVTTLAGRKSVLKMAQRMTQSFYRAIAASSYHQWTKITTKTGQDMRVSSRKNV”, the “soluble on expression in E. coli” value was “soluble”.
Regarding “MAAPAAVRRGGRSTSSAMAMDSGRPVTSGILASLCEQWQNQPRTPLSHRSGNLPMSDPDVLIIGAGHNGLTCAAYLARAGLKVKVVERRNVVGGAAVTQEFHPGFRNSVAAYTVSLLNPKVIADLKLHEHGLRIVERKAQNFLPAPDGQYLLTGSNTTAASLARLSAHDAAAFGGFAAELETIADVLRHFVLRAPPNLVVQFGLPAIRESLNALETANRLRALTMEQQRLLLDLFTCSAGEMLDARFEHDLVKALFGFDAIVGNYASPYAAGSAYVMLHHAFGEVNGKKGVWGHAIGGMGAITSAMAAAARAAGAEIETSAGVREVLVEKDRVVGVTLDDGRNVRARFVASNVNPKLLYTRLLPQDALPDDVRRRMQNWKTGSGTFRMNVALSRLPSFTALPGDGDHLTAGIIIAPSLGYMDRAYQDARAHGWSREPVVEMLIPSTLDDSLAPKGQHVASLFCQHVAPELPDGASWDDHRDEVADLMIATVDRYAPGFAASVLGRQILSPLDLEREFGLVGGDIFHGALSLNQLFSARPLLGHADYRGPLKGLYHCGSGAHPGGGVTGAPGHNAAAAILNDHRSLFASRGLEHHHHHH”, the “soluble on expression in E. coli” value was “not soluble”.
Consider “MAANGAKGRKVMRVLVVDNYDSFTYNLVQYLGELGAEPIVWRNDRFRLEEVEALDPDRILISPGPCTPFEAGLSVPLVQRYAPRYPILGVCLGHQAIGAAFGGKVVPAPVLMHGKVSPIHHDGTGVFRGLDSPFPATRYHSLAVVEVPEALVVNAWAEEAGGRTVMGFRHRDYPTHGVQFHPESYLTEAGKLILKNFLEDPWTR”, for which the “soluble on expression in E. coli” value is on record as “soluble”.
To “SKQDASRNAAYTVDCEDYVHVVEFNPFENGDSGNLIAYGGNNYVVIGTCTFQEEEADVEGIQYKTLRTFHHGVRVDGIAWSPETRLDSLPPVIKFCTSAADMKIRLFTSDLQDKNEYKVLEGHTDFINGLVFDPKEGQEIASVSDDHTCRIWNLEGVQTAHFVLHSPGMSVCWHPEETFKLMVAEKNGTIRFYDLLAQQAILSLESEQVPLMSAHWCLKNTFKVGAVAGNDWLIWDITRSSYPQNKRPVHMDRACLFRWSTISENLFATTGYPGKMASQFQIHHLGHPQPILMGSVAVGSGLSWHRTLPLCVIGGDHKLLFWVTEV” belongs “soluble”; to “MSLLGGPGIELFRRLVEEYEREHDVPMADIAAALAVQCRGGEAFLMAPDPPLSRRNRDQRRDRPQRPKRRPDLTTYRVAVGKRHKIGPGAIVGAIANEGGLHRSDFGQIRIGPDFSLVELPAKLPRATLKKLAQTRISGVLIDLRPYRPPDAARRHNGGKPRRKHVGEGHHHHHH”, “soluble”; to “MVQEIIVDSGDIEFLTTPKEYKQQLLSLIECARQRIFITALYLQDDEAGREILHALYQAKANFPTIEINIFVDFNRGQRGLIGEKASLGNRALYLKLAHEYPHTVNIYGVAVKRKEVFGVLHLKGMVFDEKLFYTGASINDIYLHQGERYRLDRYCTINSAALADSFCHYLSDTFIDSGLAPLLNQEWLPDAVEQKKNLIALKLQLKKSHYIVAQQQGLSQSKIVSNKALITPLVGFGRRKNQLNRATRHLVQKADDNMVLFTPYFNLPHSLAKDVIRALKRGVKTTVVVGDKTANDFFIGNDEDFSTIGIIPYVYEMLLKRFVKRYQNFIDQGLLNIHLWKDKDNSFHLKGLRVDDRYHLITGSNLNPRAWALDLENGLVVDDVNKQLLQKTDEELLGILVNTSKVSHFSDIDSVEDYPEKPQKLLKKIRVAQIDRVLKRFLLEHHHHHH”, “soluble”.
On to “MGSDKIHHHHHHMDAAKDDLEHAKHDLEHGFYNWACFSSQQAAEKAVKAVFQRMGAQAWGYSVPDFLGELSSRFEIPEELMDHALELDKACIPTRYPDALPSGSPRNRYSRIEAERLVNYAEKIIRFCEDLLSRI”, for which the “soluble on expression in E. coli” value is listed as “soluble”.
Take “MSLSRLVVVSNRIAPPDEHAASAGGLAVGILGALKAAGGLWFGWSGETGNEDQPLKKVKKGNITWASFNLSEQDLDEYYNQFSNAVLWPAFHYRLDLVQFQRPAWDGYLRVNALLADKLLPLLQDDDIIWIHDYHLLPFAHELRKRGVNNRIGFFLHIPFPTPEIFNALPTYDTLLEQLCDYDLLGFQTENDRLAFLDCLSNLTRVTTRSAKSHTAWGKAFRTEVYPIGIEPKEIAKQAAGPLPPKLAQLKAELKNVQNIFSVERLDYSKGLPERFLAYEALLEKYPQHHGKIRYTQIAPTSRGDVQAYQDIRHQLENEAGRINGKYGQLGWTPLYYLNQHFDRKLLMKIFRYSDVGLVTPLRDGMNLVAKEYVAAQDPANPGVLVLSQFAGAANELTSALIVNPYDRDEVAAALDRALTMSLAERISRHAEMLDVIVKNDINHWQECFISDLKQIVPRSAESQQRDKVATFPKLAEGGSHHHHHH”: the “soluble on expression in E. coli” value was “soluble”.
To “MGSDKIHHHHHHMKALALFSGGLDSMLAMKLITAQGIEVKALNINIGFGSTSDKSEIMKKRAAMVGADFEMIDVRNSYLQEVLFNPQYGYGKHFNPCIDCHAFMFKTALAMLKEENASFIITGEVLGQRPMSQRSDAMAKVKKLALDEEDLILRPMCAKNLPLTKPEREGWVDREKLEGIIGRSRKRQLELAAKFGLEDFESPGGGCLLTLDSFAKKIRDFIEFDKDMQVNDAQLLKYGRHLRLPNGAKMIIGRNELENTLLKGLKTPKYEAIEIGDLIGAYSLVDEKISEKDLELALKIALTYTKHEVGKSYELKFKNQAYTSIAFENKADINQFFIS” belongs “not soluble”; to “MITMIYKGNRAAWAYIVARTKVMKSRLLKPEDFRKLLNMEFDEIVRYIGETEYKKEIDELGYKFTGPRLLDHALYANLARTYRKLIEVSFGASKFLIMKYLEKWDVWNIINIIRGKMANVQPEVVDDILVPAGERDMDFWKTLLVKDIEEIVKSFEGTPYYEPLSKIGSEDMSKIEDGLYKVYYRELLKLNPSDFAMKLFLDFIKMEIDIRNVKTLLRLKAEDATPDEIMECTIPGGYELTEEELRKLAAMPIDEMIKALEGYWFWNDVQIEGKEVAAVEIEFDKVWIKTISKRASNYPLSILPVLQYIVLKKVEVDNLRVLGWGKYYGLPSEEIERQMVIL”, “not soluble”.
